For one test, the target named is T1, IGSF11 (VSIG3).
T1 construct: coated protein in the ELISA; also called IGSF11-Fc (R&D Systems)
T1 chain: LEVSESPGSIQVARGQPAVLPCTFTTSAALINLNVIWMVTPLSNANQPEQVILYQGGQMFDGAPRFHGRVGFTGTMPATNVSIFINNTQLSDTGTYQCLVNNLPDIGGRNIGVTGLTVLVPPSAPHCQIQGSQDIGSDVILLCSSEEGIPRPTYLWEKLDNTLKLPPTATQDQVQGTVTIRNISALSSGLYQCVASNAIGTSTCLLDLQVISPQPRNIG
Description: ELISA on coated IGSF11-Fc, 150 ng IgG1; None 0.090. The procedure:
(§1) Recombinant purified ECDs (50-150 ng) of each putative target protein were coated, incubated with 150 ng of the indicated primary antibody, and binding was detected using a peroxidase-conjugated anti-human Fab secondary antibody. Heatmap represents averages of technical triplicates. (8B) Target validation via siRNA knockdown. H929 cells were transfected with siRNA pools targeting the putative antibody targets ICAM1, CADM1, and PTPRG. Cells were then subjected to cognate IgG binding analysis via flow cytometry. (NT, non-targeting siRNA).
(§2) ELISA ELISA was conducted as described previously. Briefly, 50-150 ng of antigen was coated overnight in half-area 96-well plates at 4° C., blocked with 3% BSA at 37° C. for 1 h, and 150 ng of chimeric rabbit/human IgG1 was added, incubating for 2 h at 37° C. […] After incubating at 37° C. for 15 min-1 h (depending on intensity of controls), data were acquired using a SpectraMax M5 plate reader (Molecular Devices).

The target of a further test is T2, SELL (L-Selectin).
T2 construct: coated protein in the ELISA; also called SELL-Fc-His (R&D Systems)
T2 chain: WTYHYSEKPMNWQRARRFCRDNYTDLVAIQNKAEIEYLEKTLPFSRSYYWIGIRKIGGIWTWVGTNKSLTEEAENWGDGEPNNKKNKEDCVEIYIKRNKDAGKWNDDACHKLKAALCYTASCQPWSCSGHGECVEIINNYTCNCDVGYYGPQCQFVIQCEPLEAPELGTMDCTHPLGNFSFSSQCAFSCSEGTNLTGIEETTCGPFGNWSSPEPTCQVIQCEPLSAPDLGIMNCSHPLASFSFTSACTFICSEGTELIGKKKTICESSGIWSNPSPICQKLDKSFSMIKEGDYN
The experiment in a line: ELISA on coated SELL-Fc-His, 150 ng IgG1; None 0.096. Here is the method: as §1, §2
In general terms: ELISA stands for enzyme-linked immunosorbent assay.

In a further test the target is T3, ICAM1-Fc (R&D Systems) (human, UniProt P05362 28-480).
T3 construct: Bought; also called ICAM-1/CD54; not shown: Fc of the bought fusion protein
Description: ELISA on coated ICAM1-Fc, 150 ng IgG1; None 0.060. The procedure:
as §1, §2

The target of test [1] is T4, PTPRG-Fc (ECD of human PTPRG, aa 20-736, fused to human Fc gamma 1) (human, UniProt P23470 20-736).
T4 construct: Made in-house in Expi293 cells; Used in ELISA and SPR; also called recombinant PTPRG-Fc; PTRPG; not shown: human IgG1 Fc (Fc gamma 1) after the hinge
T4 sequence: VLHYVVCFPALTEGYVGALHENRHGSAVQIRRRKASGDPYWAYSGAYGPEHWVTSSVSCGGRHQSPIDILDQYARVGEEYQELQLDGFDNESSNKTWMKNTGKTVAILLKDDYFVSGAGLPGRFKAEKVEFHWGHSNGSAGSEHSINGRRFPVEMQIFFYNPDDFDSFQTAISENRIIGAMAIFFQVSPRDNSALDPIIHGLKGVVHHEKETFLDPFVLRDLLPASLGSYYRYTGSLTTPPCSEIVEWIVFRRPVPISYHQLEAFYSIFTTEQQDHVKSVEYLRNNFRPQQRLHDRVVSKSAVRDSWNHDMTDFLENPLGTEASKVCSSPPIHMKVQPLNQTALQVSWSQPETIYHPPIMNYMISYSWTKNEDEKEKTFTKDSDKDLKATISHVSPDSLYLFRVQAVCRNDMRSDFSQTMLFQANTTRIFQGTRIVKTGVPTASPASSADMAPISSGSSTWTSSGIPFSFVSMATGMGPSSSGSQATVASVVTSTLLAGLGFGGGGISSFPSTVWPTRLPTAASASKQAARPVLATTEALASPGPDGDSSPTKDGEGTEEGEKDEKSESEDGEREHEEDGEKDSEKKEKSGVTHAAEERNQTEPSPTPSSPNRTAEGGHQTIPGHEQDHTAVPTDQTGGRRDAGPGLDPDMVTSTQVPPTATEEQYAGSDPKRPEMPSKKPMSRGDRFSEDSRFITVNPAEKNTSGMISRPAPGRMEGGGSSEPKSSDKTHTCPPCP
Description: ELISA on coated PTPRG-Fc, 150 ng IgG1; None 0.117. Here is the method: as §1, §2

The target of another test is T5, SLAMF7.
T5 construct: coated protein in the ELISA; also called SLAMF7-StrepTag
T5 chain: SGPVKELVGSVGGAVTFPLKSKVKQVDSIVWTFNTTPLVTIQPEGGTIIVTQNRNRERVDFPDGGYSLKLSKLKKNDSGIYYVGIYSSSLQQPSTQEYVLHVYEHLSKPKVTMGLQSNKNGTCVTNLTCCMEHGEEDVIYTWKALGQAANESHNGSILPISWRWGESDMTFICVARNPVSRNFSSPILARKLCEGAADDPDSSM
The experiment in a line: ELISA on coated SLAMF7-StrepTag, 150 ng IgG1; None 0.047. The procedure: as §1, §2

T3 sequence (P05362 28-480): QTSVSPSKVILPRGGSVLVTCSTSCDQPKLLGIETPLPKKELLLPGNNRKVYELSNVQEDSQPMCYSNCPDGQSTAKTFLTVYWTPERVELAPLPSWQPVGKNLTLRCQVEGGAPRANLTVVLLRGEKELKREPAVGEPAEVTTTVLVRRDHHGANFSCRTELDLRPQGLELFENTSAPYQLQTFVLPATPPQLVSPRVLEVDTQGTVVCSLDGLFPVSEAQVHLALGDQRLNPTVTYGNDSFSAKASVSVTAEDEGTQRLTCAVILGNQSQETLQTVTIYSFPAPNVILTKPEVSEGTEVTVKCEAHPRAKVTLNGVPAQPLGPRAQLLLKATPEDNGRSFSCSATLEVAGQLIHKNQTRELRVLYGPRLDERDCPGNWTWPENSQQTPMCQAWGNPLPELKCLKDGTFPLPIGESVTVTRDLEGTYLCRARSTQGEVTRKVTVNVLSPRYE

B1: HW-16 chimeric rabbit-human IgG1 LA/LA/PG (antibody, V domains shown)
VH: QSLEESGGRLVTPGTPLTLTCTASGFSLSSYAMSWVRQAPGKGLEWIGTMPTGGGTYYASWAKGRFTISKTSTTVDLQITSPTTEDTATYFCAKHWNIWGPGTLVTISS
VL: DIVLTQTPSSTSTAVGDTVTINCRASQSIGRNLAWFQQKPGQPPKLLIYRASNLASGVPSRFKGSGSRTQFTLTISGVQREDAATYYCLGSYSSSDTAFGGGTELEILR
notes: Fc-silenced (L234A/L235A/P329G) IgG1, kappa; Alexa Fluor 647-labeled in single-step flow cytometry; Cluster C-45
Take B1: the “ELISA Absorbance (405 nm-570 nm)” value with IGSF11 (VSIG3) came to 0.087; with SELL (L-Selectin) it was 0.177; with ICAM1-Fc (R&D Systems) it was 0.055.

B2: HW-8 chimeric rabbit-human IgG1 LA/LA/PG (antibody, V domains shown)
VH: QSLEESGGRLVTPGTPLTLTCTVSGFSLSSYAMSWVRQAPGKGLEWIGAISTGGSTTYASWAKGRFTISKTSSTTVDLKMTSLTTEDTATYFCVRHFRLWGPGTLVTISS
VL: QVLTQTPSSVSAAVGGTVTIKCQASQSIGSALAWFQQKPGQRPKLLIYRASNLASGVPSRFKGSGSGTEFALTISGVQREDAATYYCLGGAAAVWAFGAGTNVEIKR
notes: as for B1
Take B2: the “ELISA Absorbance (405 nm-570 nm)” value amounted to 0.069 in the test with IGSF11 (VSIG3); 0.074 with SELL (L-Selectin); 0.069 in test [1]; 0.067 in the test with ICAM1-Fc (R&D Systems); 0.049 with SLAMF7.

B3: HW-42 chimeric rabbit-human IgG1 LA/LA/PG (antibody, V domains shown)
VH: QSVKESEGGLFKPADTLTLTCTVSGFSLSSNEISWVRQAPGEGLEYIGIIDTGGRAYYAVWARSRSTITRNTNLNTVTLKMTSLTAADTATYFCARGGVDTEWYAFSSWGPGTLVTVPS
VL: SFVLTQPASVQVNLGQTVSLTCTADTLSRRYASWYQQKPGQAPVLLIFRDTSRPSGVPDRFSGSSSGDTATLTISGAQAGDEADYYCATSDGSGSNYQYVFGGGTQLTVTG
notes: Fc-silenced (L234A/L235A/P329G) IgG1, lambda; Alexa Fluor 647-labeled in single-step flow cytometry; Cluster C-1
Take B3: the “ELISA Absorbance (405 nm-570 nm)” value with IGSF11 (VSIG3) turned out to be 0.088; with SELL (L-Selectin), 0.103; in test [1], 0.341; in the test with ICAM1-Fc (R&D Systems), 0.082; with SLAMF7 it was 0.054.

B4: HW-17 chimeric rabbit-human IgG1 LA/LA/PG (antibody, V domains shown)
VH: QSLGESRGRLVTPDETLTLTCTVSGIDLSSNAMSWVRQAPGEGLEWIGTINTGGRAYYASWAKGRFTISRTSTTVDLKMTSLTTEDTATYFCARERYSDGRAYDIWGPGTLVTISS
VL: SFVLTQPASVQVNLGQTVSLTCTADTLSRRYASWYQQKPGQAPVLLIYTDSNRPSGIPDRFSGSSSGNTATLTISGAQAGDEADYYCATDDGSGSIYQYVFGGGTQLTVTG
notes: as for B3
For the molecule B4, the “ELISA Absorbance (405 nm-570 nm)” value with IGSF11 (VSIG3) is 0.094; in the test with SELL (L-Selectin), 0.072; in test [1], 0.756; with ICAM1-Fc (R&D Systems), 0.071; with SLAMF7, 0.053.

B5: HW-70 chimeric rabbit-human IgG1 LA/LA/PG (antibody, V domains shown)
VH: QSLEESGGRLVTPGTPLTLTCTVSGFSLSSNAMSWVRQAPGKGLEWIGTIDGYGYTYYASWAKGRFTVSKTSTTVDLKITSPTTEDTATYFCAREIYLGSNFWGPGTLVTISS
VL: SFVLTQPASVQVNLGQTVSLTCTADTLSRRYASWYQQKPGQAPVLLIYRDTSRPSGVPDRFSGSSSGNTATLTISGAQAGDEADYYCATADGSGSSYQFVFGGGTQLTVTG
notes: as for B3
B5: the “ELISA Absorbance (405 nm-570 nm)” value in the test with IGSF11 (VSIG3) came to 0.085; with SELL (L-Selectin), 0.09; in test [1] it was 0.29; with ICAM1-Fc (R&D Systems), 0.064; with SLAMF7, 0.047.

B6: HW-28 chimeric rabbit-human IgG1 LA/LA/PG (antibody, V domains shown)
VH: QKQLVESGGRLVTPGTPLTLTCTASGFSLSSNAMSWVRQAPGEGLQWIGTISSGGSTYYASWAKGRFTISKTSTTVTLKMTSLTTEDTATYFCARGADLHRLWGPGTLVTVSS
VL: SFVLTQPASVQVNLGQTVSLTCTGKPLSRSFASWYQQKPGQAPVLVIYRDTSRPSGVPDRFSGSSSGNTATLTISGAQAGDEADYYCATSDGSGSSYQYVFGGGTQLTVTG
notes: Fc-silenced (L234A/L235A/P329G) IgG1, lambda; Alexa Fluor 647-labeled in single-step flow cytometry; Cluster C-45
For the molecule B6, the “ELISA Absorbance (405 nm-570 nm)” value with IGSF11 (VSIG3) was 0.11; in test [1] it was 0.121; with ICAM1-Fc (R&D Systems) it was 0.085.

B7: HW-25 chimeric rabbit-human IgG1 LA/LA/PG (antibody, V domains shown)
VH: QSLEESGGRLVTPGTPLTLTCTVSGFSLSSYAMGWVRQAPGKGLEWIGIIDSRGSTYYATWAKGRFTISKTSTTVDLKITSPTTEDTATYFCAREDSYYYDSFNLWGPGTLVTVSS
VL: SFVLTQPASVQVNLGQTVSLTCTADTLSRRYASWYQQKPGQAPVLLIYRDTSRPSGVPDRFSGSSSGNTATLTISGAQAGDEADYYCATSDGSGSSYQCVFGGGTQLTVTG
notes: as for B3
Consider B7, for which the “ELISA Absorbance (405 nm-570 nm)” value with IGSF11 (VSIG3) worked out at 0.07; with SELL (L-Selectin) it was 0.067; in test [1], 0.784; with ICAM1-Fc (R&D Systems), 0.054; with SLAMF7 it was 0.054.

B8: HW-1 chimeric rabbit-human IgG1 LA/LA/PG (antibody, V domains shown)
VH: QSLEESGGGLFKPTDTLTLTCTASGFSLGSSYAISWVRQAPGKELEWIGTIDSGRAYYARWAKSRSTITRNTNENTVTLKMTSLTAADTATYFCARDLIPTYSQDIWGPGTLVTISS
VL: SFVLTQPASVQVNLGQTVSLTCTADTLSRRYASWYQQKPGQAPVLLIYRDTSRPSGVPDRFSGSSSGNTATLTISGAQAGDEADYYCATSDGSGNSYQYVFGGGTQLTVTS
notes: Fc-silenced (L234A/L235A/P329G) IgG1, lambda; Alexa Fluor 647-labeled in single-step flow cytometry; Prototype of cluster C-1
In the case of B8, the “ELISA Absorbance (405 nm-570 nm)” value was found to be 0.074 with IGSF11 (VSIG3); 0.078 with SELL (L-Selectin); 0.756 in test [1]; 0.065 with ICAM1-Fc (R&D Systems); 0.053 with SLAMF7.

B9: TH9-0022 (antibody, human IgG1, kappa, L234A L235A, V domains shown)
VH: QSLEESGGRLVTPGTPLTLTCTVSGFSLSSYAMNWVRQAPGKGLEWIGIINSYGSTYYASWAKGRFTISKTSTTVDLKITSPTTEDTATYFCARVTYDSYGYGYAPYGMDLWGPGTLVTVSS
VL: LVMTQTPSSTSNAVGGTVTIKCQASQSIGNVLAWYQQKPGQPPKLLIYAASTLASGVPSRVGGSRSGTEYTLTISGVQREDAATYYCLGSDSDSDIAFGGGTELEILR
notes: also called TH9-022; negative control
Take B9: the “ELISA Absorbance (405 nm-570 nm)” value in the test with IGSF11 (VSIG3) came to 0.08; with SELL (L-Selectin), 0.081; in test [1], 0.106; with ICAM1-Fc (R&D Systems), 0.077; in the test with SLAMF7, 0.052.

Values taken from patent publication US20260049134A1 (UNIVERSITY OF FLORIDA RESEARCH FOUNDATION, published 2026).
